From patent US20250250357A1 (NANJING ZAIMING PHARMACEUTICAL, published 2025) come the findings set out here.

For assay [1], the target named is T1, human MSLN-R3-his protein (human, UniProt Q13421 487-598).
T1 construct: Region 3 of human MSLN, His-tagged; also called human MSLN-R3 protein; hMSLN-R3-his; not shown: His tag
Description: ELISA, coated MSLN-R3.

The target of assay [2] is T2, human MSLN-R2-his protein (human, UniProt Q13421 391-486).
T2 construct: Region 2 of human MSLN, His-tagged; also called human MSLN-R2 protein; hMSLN-R2-his; not shown: His tag
T2 sequence (Q13421 other isoform, or with tags, fused parts or gaps): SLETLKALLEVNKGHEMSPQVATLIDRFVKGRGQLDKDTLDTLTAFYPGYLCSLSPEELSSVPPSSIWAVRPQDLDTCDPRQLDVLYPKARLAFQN
Briefly: ELISA, coated MSLN-R2.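 Further: chimeric antibodies bound to blocked coated plates for 2 h at 37 °C, TMB colour development stopped with HCl, with a negative control antibody for comparison.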

The target of assay [3] is T3, human MSLN-R3-3 polypeptide (human).
T3 construct: also called human MSLN-R3-3 protein; hMSLN-R3-3
Briefly: ELISA, coated MSLN-R3-3.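 Further: chimeric antibodies in serial dilution bound to plate-coated antigen for 2 h at 37 °C, with a negative control antibody alongside, and TMB colour development stopped with HCl.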
Description: The plate was sealed with a plastic film and incubated at 4° C. overnight. The next day, the plate was washed twice with PBST, and a blocking buffer [PBS+2% (w/w) BSA] was added for blocking at room temperature for 2 h. The blocking buffer was discarded, and a chimeric antibody or negative control antibody serially diluted from 100 nM was added at 50 μL/well. After incubation at 37° C. for 2 h, the plate was washed 3 times with PBST. […] After incubation at 37° C. for 2 h, the plate was washed 5 times with PBST. A TMB substrate was added at 50 μL/well for incubation at room temperature for 5-10 min, and then a stop solution (1.0 N HCl) was added at 50 μL/well.

The target of assay [4] is T4, human MSLN-FL-his protein (human, UniProt Q13421 296-580).
T4 construct: also called human MSLN full-length protein; hMSLN-FL-his; not shown: His tag
Description: ELISA, coated MSLN full-length.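 Further: binding of chimeric antibodies to plate-bound antigen, read by TMB colour after acid stop, antibody incubated 2 h at 37 °C, negative control antibody run alongside.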 Background: An ELISA detects its analyte on a solid surface through an enzyme-linked reagent.

Assay [5] has as its target T5, human MSLN-R1-his protein (human, UniProt Q13421 296-390).
T5 construct: Region 1 of human MSLN, His-tagged; also called human MSLN-R1 protein; hMSLN-R1-his; not shown: His tag
T5 chain: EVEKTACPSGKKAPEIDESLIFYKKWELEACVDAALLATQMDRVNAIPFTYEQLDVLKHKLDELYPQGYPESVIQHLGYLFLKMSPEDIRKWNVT
Description: ELISA, coated MSLN-R1.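 Further: serially diluted chimeric antibodies bound to the coated, BSA-blocked plate for 2 h at 37 °C, with TMB colour read after acid stop and a negative control antibody alongside.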

T1 sequence (Q13421 495-606): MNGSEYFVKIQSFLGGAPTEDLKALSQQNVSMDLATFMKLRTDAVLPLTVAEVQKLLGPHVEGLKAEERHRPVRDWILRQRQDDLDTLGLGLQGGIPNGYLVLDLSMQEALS

B1: S009-F1.56.1 (antibody, human IgG1, kappa, V domains shown)
VH: EVQLQQSGAEVVKPGASVKLSCTASGFNIRHTYMHWVKQRPEQGLEWIGRIDPANGNTEYDPKFQGKATITADTSSNTAYLQLSSLTSEDTAVYYCARDGWYIDVWGAGTTVTVSS
VL: DIVMSQSPSSLAVSVGEKVTMSCKSSQSLLYSNNQKNYLAWYQQKPGQSPKLLIYWASTRESGVPDRFTGSGSGTDFTLTISSVKAEDLAVYYCQRYYSYPWTFGGGTKLEIKR
notes: Human-murine chimeric antibody, human IgG1/kappa constant regions
For B1, in assay [1], the “OD450 at 0.0001 nM” value came out at 0.05 OD450, the “OD450 at 0.001 nM” value is 0.04 OD450, the “OD450 at 0.01 nM” value was found to be 0.04 OD450 and the “OD450 at 0.1 nM” value came out at 0.05 OD450. For the same molecule, in assay [1], the “OD450 at 1 nM” value stood at 0.04 OD450, the “OD450 at 10 nM” value came out at 0.05 OD450, the “OD450 at 100 nM” value amounted to 0.06 OD450 and the “OD450 at none (no antibody)” value worked out at 0.06 OD450. Moreover, in assay [2], the “OD450 at 0.0001 nM” value was 0.04 OD450, the “OD450 at 0.001 nM” value was determined as 0.05 OD450, the “OD450 at 0.01 nM” value was 0.19 OD450 and the “OD450 at 0.1 nM” value was 0.88 OD450. Moreover, in assay [2], the “OD450 at 1 nM” value is 2.04 OD450, the “OD450 at 10 nM” value stood at 2.31 OD450, the “OD450 at 100 nM” value turned out to be 2.62 OD450 and the “OD450 at none (no antibody)” value is 0.05 OD450. Moreover, in assay [3], the “OD450 at 0.0001 nM” value was found to be 0.07 OD450, the “OD450 at 0.001 nM” value stood at 0.07 OD450, the “OD450 at 0.01 nM” value worked out at 0.08 OD450 and the “OD450 at 0.1 nM” value was determined as 0.06 OD450. In addition, in assay [3], the “OD450 at 1 nM” value was found to be 0.07 OD450, the “OD450 at 10 nM” value turned out to be 0.08 OD450, the “OD450 at 100 nM” value was found to be 0.12 OD450 and the “OD450 at none (no antibody)” value came out at 0.07 OD450.

B2: S009-F1.59.1 (antibody, human IgG1, kappa, V domains shown)
VH: EVKLEGSGGGLVQPGGSMMLSCVATGFTFSSYWMNWVRQSPDRGLEWVAEIRLKSNGFAAFYAESVKGRFTISRDDSKSSVYLQMNNLRTEDTGIYYCTYFVHWGQGILVTVSE
VL: DIVLTQSPTSLAVSLGQRATISCRTSESVEYFGTILIQWYQQKPGQPPKLLIFGASNVESGVPARFSGSGSGTDFSLNIHPVEEEDIAMYFCQQNRKVPYTFGGGTTLELKR
notes: as for B1
With B2, in assay [1], the “OD450 at 0.0001 nM” value turned out to be 0.05 OD450, the “OD450 at 0.001 nM” value is 0.06 OD450, the “OD450 at 0.01 nM” value stood at 0.17 OD450 and the “OD450 at 0.1 nM” value amounted to 1 OD450. Moreover, in assay [1], the “OD450 at 1 nM” value is 1.62 OD450, the “OD450 at 10 nM” value is 2.05 OD450, the “OD450 at 100 nM” value came out at 2.51 OD450 and the “OD450 at none (no antibody)” value amounted to 0.05 OD450. In addition, in assay [2], the “OD450 at 0.0001 nM” value stood at 0.03 OD450, the “OD450 at 0.001 nM” value is 0.04 OD450, the “OD450 at 0.01 nM” value turned out to be 0.06 OD450 and the “OD450 at 0.1 nM” value amounted to 0.05 OD450. In addition, in assay [2], the “OD450 at 1 nM” value was 0.04 OD450, the “OD450 at 10 nM” value is 0.05 OD450, the “OD450 at 100 nM” value was determined as 0.06 OD450 and the “OD450 at none (no antibody)” value stood at 0.04 OD450. In addition, in assay [3], the “OD450 at 0.0001 nM” value is 0.06 OD450, the “OD450 at 0.001 nM” value was determined as 0.06 OD450, the “OD450 at 0.01 nM” value was determined as 0.06 OD450 and the “OD450 at 0.1 nM” value came to 0.06 OD450. In assay [3], the “OD450 at 1 nM” value stood at 0.07 OD450, the “OD450 at 10 nM” value was 0.07 OD450, the “OD450 at 100 nM” value was determined as 0.18 OD450 and the “OD450 at none (no antibody)” value was 0.07 OD450.

B3: S009-F1.57.1 (antibody, human IgG1, kappa, V domains shown)
VH: EAQLQQSGAVFVKPGASVKLSCTASGFSSKDIFLHWVKQRPEQGLEWIGRIDPASDNTIYDPKFQDRATITSDRSSNTAYLQFSSLTSEDTAVYFCLYFDFWGQGTTLTVSS
VL: DIVMTQATPSISVTPGESVSISCRSSESLLHSNGNTYLYWFLQRPGQSPQLLIYRMSNLASGVPDRFSVSGSGTAFTLRISRVEAEDVGVYYCMQHLEYPLTFGAGTKLELKR
notes: as for B1
Take B3: in assay [1], the “OD450 at 0.0001 nM” value was 0.05 OD450, the “OD450 at 0.001 nM” value came to 0.05 OD450, the “OD450 at 0.01 nM” value was found to be 0.06 OD450 and the “OD450 at 0.1 nM” value was 0.19 OD450. In assay [1], the “OD450 at 1 nM” value was 0.86 OD450, the “OD450 at 10 nM” value was found to be 1.81 OD450, the “OD450 at 100 nM” value is 2.25 OD450 and the “OD450 at none (no antibody)” value is 0.05 OD450. Also, in assay [2], the “OD450 at 0.0001 nM” value is 0.05 OD450, the “OD450 at 0.001 nM” value amounted to 0.04 OD450, the “OD450 at 0.01 nM” value was 0.04 OD450 and the “OD450 at 0.1 nM” value amounted to 0.07 OD450. In assay [2], the “OD450 at 1 nM” value amounted to 0.04 OD450, the “OD450 at 10 nM” value was found to be 0.05 OD450, the “OD450 at 100 nM” value was determined as 0.11 OD450 and the “OD450 at none (no antibody)” value came to 0.05 OD450. Further, in assay [3], the “OD450 at 0.0001 nM” value came to 0.06 OD450, the “OD450 at 0.001 nM” value was determined as 0.07 OD450, the “OD450 at 0.01 nM” value stood at 0.07 OD450 and the “OD450 at 0.1 nM” value turned out to be 0.07 OD450. Further, in assay [3], the “OD450 at 1 nM” value came to 0.07 OD450, the “OD450 at 10 nM” value was found to be 0.07 OD450, the “OD450 at 100 nM” value was 0.11 OD450 and the “OD450 at none (no antibody)” value came out at 0.07 OD450.

B4: S009-F1.62.9 (antibody, human IgG1, kappa, V domains shown)
VH: EVQLQQSGADLVKPGASVKLSCTVFGLNFKDTFMHWVRQRPEQGLEWIGRIDPANDNSIYGPKFQDKATITADTSSNTAYLHLSSLTSEDTAVYYCLYFDNWGHGTTLTVSS
VL: DIVMTQAASSEPVTPGESVSISCRSDKSLLHSNGHNYLYWFLQRPGQSPHLLIYRMSNLASGVPDRFSGSGSGTAFTLRISRVEAEDVGVYYCMQHLEYPLTFGAGTKLELKR
notes: as for B1
For B4, in assay [1], the “OD450 at 0.0001 nM” value was determined as 0.04 OD450, the “OD450 at 0.001 nM” value is 0.06 OD450, the “OD450 at 0.01 nM” value worked out at 0.07 OD450 and the “OD450 at 0.1 nM” value was determined as 0.26 OD450. Also, in assay [1], the “OD450 at 1 nM” value was 1.06 OD450, the “OD450 at 10 nM” value turned out to be 2 OD450, the “OD450 at 100 nM” value worked out at 2.32 OD450 and the “OD450 at none (no antibody)” value is 0.05 OD450. Also, in assay [2], the “OD450 at 0.0001 nM” value amounted to 0.03 OD450, the “OD450 at 0.001 nM” value was found to be 0.05 OD450, the “OD450 at 0.01 nM” value came out at 0.04 OD450 and the “OD450 at 0.1 nM” value was found to be 0.06 OD450. For the same molecule, in assay [2], the “OD450 at 1 nM” value was determined as 0.04 OD450, the “OD450 at 10 nM” value came to 0.05 OD450, the “OD450 at 100 nM” value worked out at 0.06 OD450 and the “OD450 at none (no antibody)” value was 0.04 OD450. In assay [3], the “OD450 at 0.0001 nM” value stood at 0.06 OD450, the “OD450 at 0.001 nM” value came out at 0.07 OD450, the “OD450 at 0.01 nM” value was determined as 0.07 OD450 and the “OD450 at 0.1 nM” value is 0.07 OD450. Also, in assay [3], the “OD450 at 1 nM” value is 0.06 OD450, the “OD450 at 10 nM” value was 0.07 OD450, the “OD450 at 100 nM” value was determined as 0.13 OD450 and the “OD450 at none (no antibody)” value was 0.07 OD450.

B5: S009-F2.58.8 (antibody, human IgG1, kappa, V domains shown)
VH: QVQLLQSGAELAKPGASVKLSCKASGYTFTSYWVHWVKQRPGQGLEWIGYINPNSGYTKYNQKFKDKATLTADKSSSTAYMQLSSLTYEDSAVYYCADHYYGSSRDYFDYWGQGTTLTVSS
VL: QIVLTQSPAIMSASPGEKVTMTCSASSSVSYMYWYQQRPGSSPRLLIYDTSNLASGVPVRFSGSGSGTSYSLTISRMEAEDAATYYCQQWNSYPYTFGGGTKLEIKR
notes: as for B1
As to B5, in assay [4], the “OD450 at 0.0001 nM” value was 0.05 OD450, the “OD450 at 0.001 nM” value came to 0.06 OD450, the “OD450 at 0.01 nM” value was found to be 0.09 OD450 and the “OD450 at 0.1 nM” value was 0.4 OD450. Also, in assay [4], the “OD450 at 1 nM” value was 1.56 OD450, the “OD450 at 10 nM” value was 2.47 OD450, the “OD450 at 100 nM” value was determined as 2.87 OD450 and the “OD450 at none (no antibody)” value is 0.06 OD450. Besides, in assay [5], the “OD450 at 0.0001 nM” value is 0.05 OD450, the “OD450 at 0.001 nM” value came to 0.05 OD450, the “OD450 at 0.01 nM” value is 0.05 OD450 and the “OD450 at 0.1 nM” value came out at 0.06 OD450. For the same molecule, in assay [5], the “OD450 at 1 nM” value stood at 0.13 OD450, the “OD450 at 10 nM” value amounted to 0.43 OD450, the “OD450 at 100 nM” value was 0.83 OD450 and the “OD450 at none (no antibody)” value worked out at 0.06 OD450.
